Measurements as given in patent publication US20140315825A1 (GENEMEDICINE, published 2014).

Target: T1, soluble Wnt decoy receptor sLRP6E1E2 (FLAG-tagged E1 and E2 extracellular domains of LRP6) (Homo sapiens (Human), UniProt O75581 20-651)
T1 construct: Expressed in the assay cells from the adenoviral vector dE1-k35/sLRP6E1E2 and not added as purified protein; also called soluble LRP6 receptor; decoy Wnt receptor; not shown: FLAG tag
T1 sequence: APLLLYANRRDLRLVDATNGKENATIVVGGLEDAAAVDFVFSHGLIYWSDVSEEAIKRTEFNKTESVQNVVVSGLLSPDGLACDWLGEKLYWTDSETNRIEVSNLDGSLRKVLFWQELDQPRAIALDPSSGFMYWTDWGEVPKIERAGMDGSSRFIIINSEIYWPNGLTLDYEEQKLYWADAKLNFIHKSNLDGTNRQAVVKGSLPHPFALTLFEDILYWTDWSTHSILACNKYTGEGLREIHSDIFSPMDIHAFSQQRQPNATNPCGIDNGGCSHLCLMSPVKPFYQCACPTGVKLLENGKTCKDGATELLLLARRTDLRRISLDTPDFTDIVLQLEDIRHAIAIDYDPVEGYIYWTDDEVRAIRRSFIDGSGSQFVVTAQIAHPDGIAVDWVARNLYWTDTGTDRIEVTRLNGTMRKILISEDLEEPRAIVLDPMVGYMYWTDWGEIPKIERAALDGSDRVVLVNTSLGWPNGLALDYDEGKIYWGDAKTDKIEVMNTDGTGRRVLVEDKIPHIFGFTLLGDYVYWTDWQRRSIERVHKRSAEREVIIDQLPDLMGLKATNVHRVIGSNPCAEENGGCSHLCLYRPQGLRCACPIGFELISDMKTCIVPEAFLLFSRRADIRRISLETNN
Assay: immunoprecipitation of lysates of transduced H322 and H460 cells with anti-Wnt3a or anti-LRP6, then western blot
Protocol: FIG. 1 represents characterization of the decoy Wnt receptor sLRP6E1E2. FIG. 1a is schematic representation of the genomic structure of Ad vectors used. […] Cell culture supernatants were assessed with FLAG- or LRP6-specific Ab. (d) H322 and H460 cells were transduced with dE1-k35/LacZ or dE1-k35/sLRP6E1E2 (50 MOI) for 48 hr. Cell lysates were immunoprecipitated with antisera against Wnt3a (IP: Wnt3a) or LRP6 (IP: LRP6) followed by western blot (WB) analysis with the same antibodies.
Next, binding of sLRP6E1E2 to Wnt3a was assessed in cells transduced with dE1-k35/LacZ or dE1-k35/sLRP6E1E2. Cell lysates were immunoprecipitated with anti-Wnt3a or anti-LRP6 antibodies and analyzed by western blot.

binding result: binds
B1: Wnt3a, endogenous in human non-small cell lung cancer cell lines H322 and H460 (ligand, UniProt P56704 19-352, looked up)
chain: SYPIWWSLAVGPQYSSLGSQPILCASIPGLVPKQLRFCRNYVEIMPSVAEGIKIGIQECQHQFRGRRWNCTTVHDSLAIFGPVLDKATRESAFVHAIASAGVAFAVTRSCAEGTAAICGCSSRHQGSPGKGWKWGGCSEDIEFGGMVSREFADARENRPDARSAMNRHNNEAGRQAIASHMHLKCKCHGLSGSCEVKTCWWSQPDFRAIGDFLKDKYDSASEMVVEKHRESRGWVETLRPRYTYFKVPTERDLVYYEASPNFCEPNPETGSFGTRDRTCNVSSHGIDGCDLLCCGRGHNARAERRREKCRCVFHWCCYVSCQECTRVYDVHTCK
notes: Present in cell lysates in the immunoprecipitation; also called Wnt 3a protein
